Laboratory results as given in article PMC8352866.

Columns and labels:
[1] = target: PII-like signaling protein SbtB; assay: cryo-EM structure; SbtA-SbtB complex purified in the presence of AMP; 3.15 Å resolution
[2] = target: Synechocystis sp. PCC 6803 SbtA (Synechocystis sp. PCC 6803); assay: cryo-EM structure; free SbtA, purified; 3.50 Å resolution
[3] = target: Synechocystis sp. PCC 6803 SbtA (Synechocystis sp. PCC 6803); assay: cryo-EM structure; SbtA-SbtB complex purified in the presence of AMP; 3.15 Å resolution

| Substance | stoichiometry N [1] | stoichiometry N [2] | stoichiometry N [3] |
| --- | --- | --- | --- |
| PII-like signaling protein SbtB (natural protein) | 3 |  |  |
| Synechocystis sp. PCC 6803 SbtA (natural protein) |  | 3 | 3 |
